In patent US8962263B2, “Methods and compositions for detecting the activation state of multiple proteins in single cells” (The Board of Trustees of the Leland Stanford Junior …, priority 2001, dated 2015):

How the values were obtained:
ezrin = test: phosphotyrosine-protein based elisa for ezrin tyrosine phosphorylation upon ICAM-2 ligation; assay type: cell-based, human; conditions: Jurkat cells
Pyk2 = test: sICAM-2 induced Pyk2 phosphorylation (phospho-tyrosine based ELISA, chemical genetic approach); assay type: cell-based; conditions: phospho-tyrosine based ELISA
Method in brief: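 Chemical genetic approach: sICAM-2-stimulated cells treated with selected kinase/pathway inhibitors (PKC inhibitors BIM I, BIM II, staurosporine; tyrphostin A9; neomycin; piceatannol); phosphorylation status of Pyk2 and Syk measured by phospho-tyrosine ELISA.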

HL60 cells = test: FACS based effector-target killing assay, human PBMC against CFSE labeled HL60 cells; assay type: cell-based; conditions: 10 μg/ml, 50:1 E:T ratio, 4 hrs
Description: A) PBMC were either treated with ICAM-2, (10 μg/ml) in the presence of IL-2, for 12, hr and then incubated with CFSE labeled target HL60, cells at a 50:1, E:T ratio for 4, hrs. Remaining HL60, cells were quantified by flow cytometry. B) PBMC were treated with IL-2, (100, U/ml, 12, hrs) and treated with ICAM-1,-2, or 3, FC proteins (10, μg/ml) and used in a cytotoxicity assay as described above. Results are representative of 4, independent experiments.
(§1) Target cell lysis was measured by flow cytoemtric based detection of CFSE labeled HL60 cells. HL60 cells were labeled with 1 μg of CFSE (30 min, 37° C.). Targets were washed twice and mock treated, IL-2 activated (100 U/ml), CD3/CD28 activated (1 μg/ml), or treated with ICAM2 beads or soluble ICAM-1, -2, or 3 (10 μg/ml, 30 min, 37° C.) before plating at 10^4 target cells/well of a 96-well round bottom plate. CTLs were added at 50:1, 25:1, and 12.5:1 E:T ratio, and incubated at 37° C. for 4 hrs. Cells were then processed for multiparameter flow cytometry and intracellular perforin stain. Percent specific lysis was calculated by the following equation: % specific lysis=100-100×(experimental HL60 count/total control HL60 count). HL60 counts were detectable by the CFSE fluorescence. Percent perforin was calculated by the following equation: % perforin=100×[(experimental perforin MFI−isotype mAb MFI)/(total perforin MFI−isotype mAb MFI)]. MFI refers to mean fluorescent intensity of flow cytoemtric based intracellular detection. Cell conjugates were determined by flow cytometry as described (Morgan et al., 2001). Chemical inhibition was done at 10 μM of indicated compound (30 min, 37° C.) prior to stimulation as indicated. All experiments were performed in triplicate.

[1] = tested on: CD56 CD8 cytotoxic lymphocyte subsets; test: intracellular perforin and granzyme-A in CD56CD8 subsets of human PBMC by flow cytometry; assay type: cell-based
Description: IL-2, activated PBMC (shown in A-1 and A-3) were mock-treated (IgG) (A-2) , ICAM-1, (A2), ICAM-2, (A4), or ICAM-3, (A4) treated (10, μg/ml of FC fusion protein) for 12 hrs prior to incubation with target HL60, cells at a 50:1, E:T ratio for 4, hrs. Cells were then prepared for flow cytometry with CD8-CY5PE, CD56-PE surface stains, and perforin-CY5, and granzyme-A-FITC intracellular stains. Cells were gated for CD56^+CD8^low, CD56^+CD8^med, CD56^+, CD8^high, CD56^−, CD8^−, , CD56^−-CD8^high, populations as shown in A-1 and A-3 and population frequencies within appropriate gate. […] Results are representative of 3 independent experiments and were similar at 25:1 and 12.5:1 E:T ratios (data not shown). Manual calibration was performed. […] Perforin percentage was calculated from the following equation where MFI equals mean fluorescent intensity: 100×[(MFIexperimental−MFIisotype mAb)/(MFIcontrol−MFlisotype mAb)] Unstimulated cells were used as control.
as §1

LFA-1 = LFA-1 (Homo sapiens, UniProt P20701); conditions: cited from earlier work
Sequence of LFA-1 (P20701 26-1170): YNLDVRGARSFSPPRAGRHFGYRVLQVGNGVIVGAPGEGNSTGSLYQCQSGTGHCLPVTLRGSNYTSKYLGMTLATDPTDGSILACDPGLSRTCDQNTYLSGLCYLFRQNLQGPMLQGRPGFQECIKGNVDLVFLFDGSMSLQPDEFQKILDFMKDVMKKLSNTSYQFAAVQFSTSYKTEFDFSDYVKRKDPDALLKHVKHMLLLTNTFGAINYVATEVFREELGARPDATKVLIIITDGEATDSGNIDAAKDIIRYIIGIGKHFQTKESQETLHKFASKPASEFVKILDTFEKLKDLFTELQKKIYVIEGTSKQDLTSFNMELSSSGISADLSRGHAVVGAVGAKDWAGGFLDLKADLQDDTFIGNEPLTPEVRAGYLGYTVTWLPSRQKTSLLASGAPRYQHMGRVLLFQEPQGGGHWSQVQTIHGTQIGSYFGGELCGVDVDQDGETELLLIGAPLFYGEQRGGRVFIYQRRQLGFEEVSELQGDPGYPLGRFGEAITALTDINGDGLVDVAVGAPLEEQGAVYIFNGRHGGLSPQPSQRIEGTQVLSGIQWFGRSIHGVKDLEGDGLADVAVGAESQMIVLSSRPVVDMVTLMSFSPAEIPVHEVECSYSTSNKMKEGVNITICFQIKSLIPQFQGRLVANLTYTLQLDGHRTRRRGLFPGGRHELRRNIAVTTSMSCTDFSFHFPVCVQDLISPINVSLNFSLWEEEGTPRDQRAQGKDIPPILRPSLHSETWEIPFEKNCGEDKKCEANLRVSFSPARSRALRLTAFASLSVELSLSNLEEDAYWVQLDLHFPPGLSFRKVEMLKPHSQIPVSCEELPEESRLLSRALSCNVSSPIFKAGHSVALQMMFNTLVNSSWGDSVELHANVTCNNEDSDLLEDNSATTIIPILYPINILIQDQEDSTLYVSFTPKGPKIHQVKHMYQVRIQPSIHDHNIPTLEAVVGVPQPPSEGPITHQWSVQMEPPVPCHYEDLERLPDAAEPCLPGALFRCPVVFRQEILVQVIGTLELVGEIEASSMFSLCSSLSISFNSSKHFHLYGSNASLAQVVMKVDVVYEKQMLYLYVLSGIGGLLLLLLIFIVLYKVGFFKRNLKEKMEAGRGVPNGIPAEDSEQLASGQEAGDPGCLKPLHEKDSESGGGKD
Sequence of LFA-1 (P05107 23-769 partner): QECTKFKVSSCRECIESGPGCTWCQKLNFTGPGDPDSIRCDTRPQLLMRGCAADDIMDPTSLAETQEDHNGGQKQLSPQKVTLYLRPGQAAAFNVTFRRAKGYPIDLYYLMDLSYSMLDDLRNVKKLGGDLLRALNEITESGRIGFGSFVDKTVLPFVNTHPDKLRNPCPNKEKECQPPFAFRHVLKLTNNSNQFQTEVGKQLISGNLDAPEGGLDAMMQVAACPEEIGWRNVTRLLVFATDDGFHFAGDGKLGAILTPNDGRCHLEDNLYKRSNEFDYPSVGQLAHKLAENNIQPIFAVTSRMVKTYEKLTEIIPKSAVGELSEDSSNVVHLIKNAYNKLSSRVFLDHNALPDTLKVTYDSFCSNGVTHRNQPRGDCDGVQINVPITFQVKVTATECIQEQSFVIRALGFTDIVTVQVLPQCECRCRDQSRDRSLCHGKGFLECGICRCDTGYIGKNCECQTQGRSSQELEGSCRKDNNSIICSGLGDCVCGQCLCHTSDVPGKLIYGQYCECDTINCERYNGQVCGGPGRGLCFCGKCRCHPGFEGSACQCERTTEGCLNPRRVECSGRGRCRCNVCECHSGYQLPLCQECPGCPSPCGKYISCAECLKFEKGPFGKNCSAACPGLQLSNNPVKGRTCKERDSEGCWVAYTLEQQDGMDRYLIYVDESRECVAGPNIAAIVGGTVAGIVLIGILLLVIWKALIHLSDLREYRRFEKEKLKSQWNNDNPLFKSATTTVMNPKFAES

## CN(C)CCCn1cc(C2=C(c3c[nH]c4ccccc34)C(=O)NC2=O)c2ccccc21 [bisindolymaleimide I]
ezrin
  tyrosine phosphorylation of ezrin: minor affects
Pyk2
  sICAM-2 induced Pyk2 phosphorylation: affected

B1: ICAM-2: biochemically purified soluble human ICAM-2 protein from retrovirally transduced NIH3T3 cells; ICAM-2-FC fusion also used (protein, UniProt P13598 25-223, looked up)
extracellular domain: KVFEVHVRPKKLAVEPKGSLEVNCSTTCNQPEVGGLETSLDKILLDEQAQWKHYLVSNISHDTVLQCHFTCSGKQESMNSNVSVYQPPRQVILTLQPTLVAVGKSFTIECRVPTVEPLDSLTLFLFRGNETLHYETFGKAAPAPQEATATFNSTADREDGHRNFSCLAVLDLMSRGGNIFHKHSAPKMLEIYEPVSDSQ
modifications: extracellular domain
notes: biochemically purified soluble human ICAM-2 protein from retrovirally transduced NIH3T3 cells; ICAM-2-FC fusion also used
HL60 cells
  target cell lysis of HL60 cells: could initiate target cell lysis in the presence of IL-2 but not in the absence of IL-2
[1]; CD56+CD8high population
  granzyme-A negative population: 58.3%
[1]; CD56+CD8low population
  changes in intracellular perforin or granzyme-A: no significant changes
[1]; CD56+CD8med population
  frequency of the perforin negative population: 21.5%
LFA-1; bulk cellular adhesion assay
  concentration inducing LFA-1 mediated adhesion: 1.3 µM
LFA-1
  fold lower ICAM-2 soluble protein concentration compared with P1: 48 fold
